Laboratory results: paper PMC4567411 (Nature, 2015)

T1: His6Sumo-MED25(407-680) (Arabidopsis, UniProt Q7XYY2 407-680)
T1 sequence (looked up): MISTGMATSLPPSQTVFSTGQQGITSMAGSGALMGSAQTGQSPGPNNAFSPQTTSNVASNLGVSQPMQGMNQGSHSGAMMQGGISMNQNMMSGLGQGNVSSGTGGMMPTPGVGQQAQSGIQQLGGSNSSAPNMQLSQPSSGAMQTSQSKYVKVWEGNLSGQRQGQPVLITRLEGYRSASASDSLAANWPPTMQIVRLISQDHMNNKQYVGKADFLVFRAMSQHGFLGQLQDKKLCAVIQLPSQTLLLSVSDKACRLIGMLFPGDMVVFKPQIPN

B1: His6Sumo-MED25(540-680) (domain or fragment, Arabidopsis, UniProt Q7XYY2 540-680, looked up)
chain: QLSQPSSGAMQTSQSKYVKVWEGNLSGQRQGQPVLITRLEGYRSASASDSLAANWPPTMQIVRLISQDHMNNKQYVGKADFLVFRAMSQHGFLGQLQDKKLCAVIQLPSQTLLLSVSDKACRLIGMLFPGDMVVFKPQIPN
B2: biotin-MYC3(5-242) (domain or fragment, Arabidopsis, UniProt Q9FIP9 5-242, looked up)
chain: TSSINFLTSDDDASAAAMEAFIGTNHHSSLFPPPPQQPPQPQFNEDTLQQRLQALIESAGENWTYAIFWQISHDFDSSTGDNTVILGWGDGYYKGEEDKEKKKNNTNTAEQEHRKRVIRELNSLISGGIGVSDESNDEEVTDTEWFFLVSMTQSFVNGVGLPGESFLNSRVIWLSGSGALTGSGCERAGQGQIYGLKTMVCIATQNGVVELGSSEVISQSSDLMHKVNNLFNFNNGGG
modifications: biotin (site not stated)
B3: Jas22^JAZ9 peptide (peptide, UniProt Q8W4J8 218-239, looked up)
peptide: SVPQARKASLARFLEKRKERLM
B4: biotin-MYC3(44-238) (domain or fragment, Arabidopsis, UniProt Q9FIP9 44-238, looked up)
chain: QPQFNEDTLQQRLQALIESAGENWTYAIFWQISHDFDSSTGDNTVILGWGDGYYKGEEDKEKKKNNTNTAEQEHRKRVIRELNSLISGGIGVSDESNDEEVTDTEWFFLVSMTQSFVNGVGLPGESFLNSRVIWLSGSGALTGSGCERAGQGQIYGLKTMVCIATQNGVVELGSSEVISQSSDLMHKVNNLFNFN
modifications: biotin (site not stated)

Legend:
Assay in all cases: AlphaScreen or HTRF
biotin-MYC3(44-238) [1] = target: B4
His6Sumo-MED25(407-680) = target: T1, His6Sumo-MED25(407-680)
biotin-MYC3(44-238) [2] = target: B4; remark: listed apart in the source
biotin-MYC3(5-242) = target: B2

Binder: B1
binding result (biotin-MYC3(44-238) [1]): binds

Binder: B2
binding result (His6Sumo-MED25(407-680)): binds

Binder: B3
IC50 (biotin-MYC3(44-238) [2]): ~420 nM | IC50 (biotin-MYC3(5-242)): ~490 nM

Binder: B4
binding result (His6Sumo-MED25(407-680)): binds
